Patent publication EP2091973A2

Tests used:
Assay in all cases: cell-based or functional assay
[1] = target: gp120 of HIV strain ZA009 (clade C) on virus (HIV-1 (strain 97ZA009))
[2] = target: gp120 of HIV strain SF162 (clade B) on virus (HIV-1 (strain SF162))
[3] = target: gp120 of HIV strain BR004 (clade C) on virus (HIV-1 (strain BR004))

## MAb b12 (antibody)
[1]
  IC80, HIV neutralization (PBMC hosts, p24): > 20 µg/mL
[2]
  IC80, HIV neutralization (PBMC hosts, p24): 14.1 µg/mL
[3]
  IC80, HIV neutralization (PBMC hosts, p24): > 20 µg/mL
